Source: patent US20220204624A1 (Xencor, published 2022)
Substitutions are numbered along the chain they refer to.

What was measured:
His-tagged human PD-1 [1] = molecular target: T1, His-tagged human PD-1 (human, UniProt Q15116 25-167, limits assumed); assay: Octet, His-tagged PD-1 as analyte
T1 construct: also called PD-1-His; huPD-1-His; not shown: histidine tag

His-tagged human PD-1 [2] = molecular target: T1, His-tagged human PD-1; assay: Octet, antibody on AHC biosensors, His-tagged PD-1 as analyte
His-tagged human PD-1 [3] = molecular target: T1, His-tagged human PD-1; assay: Biacore (SPR), mAb captured on Protein A chip, histidine-tagged human PD-1 as analyte
His-tagged human PD-1 [4] = molecular target: T1, His-tagged human PD-1; assay: Octet, antibody on AHC biosensors, His-tagged human PD-1 as analyte
human CTLA-4 = human CTLA-4 (human, UniProt P16410 36-161, limits assumed); assay: Octet (BLI), global fit, 1:1 binding model
human CTLA-4, sequence (P16410 36-161 limits assumed): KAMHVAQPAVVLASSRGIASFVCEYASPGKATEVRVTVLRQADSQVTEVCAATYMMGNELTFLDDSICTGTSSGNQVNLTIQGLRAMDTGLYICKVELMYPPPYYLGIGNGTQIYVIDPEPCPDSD

cynomolgus CTLA-4 = cynomolgus CTLA-4 (cynomolgus, UniProt G7PL88 36-161); assay: Octet (BLI), global fit, 1:1 binding model
cynomolgus CTLA-4, sequence (G7PL88 entry or part of it limits assumed, form in doubt): as the sequence (P16410 36-161 limits assumed) above, with S14N, L106M counted along it

human PD-1 = human PD-1 (human, UniProt Q15116 25-167, limits assumed); assay: Octet (BLI), global fit, 1:1 binding model
human PD-1, sequence (Q15116 25-167 limits assumed): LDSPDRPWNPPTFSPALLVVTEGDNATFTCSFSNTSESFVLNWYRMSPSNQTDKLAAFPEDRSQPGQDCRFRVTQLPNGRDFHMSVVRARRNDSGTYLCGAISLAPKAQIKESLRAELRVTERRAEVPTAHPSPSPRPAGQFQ

cynomolgus PD-1 = molecular target: T2, cynomolgus PD-1 (cynomolgus, UniProt B0LAJ3 25-170); assay: Octet (BLI), global fit, 1:1 binding model
T2 construct: also called cyno PD-1; not shown: carrier of the soluble construct (His tag or Fc)
T2 sequence (B0LAJ3 entry or part of it limits assumed, form in doubt): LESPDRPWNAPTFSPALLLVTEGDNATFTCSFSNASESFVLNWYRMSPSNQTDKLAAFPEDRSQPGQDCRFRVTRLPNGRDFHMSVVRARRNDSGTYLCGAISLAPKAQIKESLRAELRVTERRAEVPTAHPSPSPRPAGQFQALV

T1 sequence (Q15116 25-167 limits assumed): as the sequence (Q15116 25-167 limits assumed) above

B1: XENP22553 (antibody, V domains shown)
VH: QIQLVQSGSELKKPGASVKVSCKASGYTFTHYGMNWVRQAPGQGLEWMGWINTYTGEPTYADGFTGRFVFSLDTSVSTAYLQISSLKAEDTAVYFCARDYYGSSPYWGQGTLVTVSS
VL: DVLMTQSPDSLAVSLGERATINCKSSQSIVHSNGNTYLEWYQQKPGQSPKLLIYKVSNRFSGVPDRFSGSGSGTDFTLTISSLQAEDVAVYYCFQGSHVPNTFGGGTKVEIK
Kd (His-tagged human PD-1 [1]): ~18 nM
Kd (His-tagged human PD-1 [2]): 15 to 19 nM
Kd (His-tagged human PD-1 [3]): 8.6 nM

B2: XENP26928 (antibody, V domains shown)
VH: B1 VH
VL: B1 VL with N33E
Kd (His-tagged human PD-1 [4]): 333 nM

B3: XmAb20717 (bispecific antibody)
chain 1: not shown
chain 2: EIVLTQSPATLSASPGERVTLTCRASQSVGNDVAWYQQKPGQAPRLLINYASHRYTGVPDRFTGSGYGTEFTLTISSVQSEDFGVYYCQQDFSSPRTFGGGTKVEIKGKPGSGKPGSGKPGSGKPGSEVQLVESGGGLVKPGGSLRLSCVASGFTFSNYWMNWVRQAPGKGLEWVAEIRLYSNNYATHYAESVKGRFTISRDDSKSTLYLQMNNLKTEDTGVYYCTRYYGNYGGYFDVWGRGTLVTVSSEPKSSDKTHTCPPCPAPPVAGPSVFLFPPKPKDTLMISRTPEVTCVVVDVKHEDPEVKFNWYVDGVEVHNAKTKPREEQYNSTYRVVSVLTVLHQDWLNGKEYKCKVSNKALPAPIEKTISKAKGQPREPQVYTLPPSREQMTKNQVKLTCLVKGFYPSDIAVEWESNGQPENNYKTTPPVLDSDGSFFLYSKLTVDKSRWQQGNVFSCSVLHEALHSHYTQKSLSLSPGK
chain 3: not shown
Kd (human CTLA-4): ~4.1 nM
Kd (cynomolgus CTLA-4): ~23 nM
Kd (human PD-1): 1.4 nM
Kd (cynomolgus PD-1): 5.5 nM
